Several values for one entry are separate records, joined by “and”; a condition that tells them apart may be missing. Equal entries are not always repeated.
Experiments:
Type in all cases: biochemical
[1] = Reaction products by capillary electrophoresis, TMR-labeled acceptor LacNAc; settings: acceptor LacNAc labeled with TMR; expected product H type 2
From the text: (§1) The reaction products synthesized from different acceptors by the Hp α1,2 FucT were further characterized by capillary electrophoresis with laser-induced fluorescence detection. The reaction mixture contained the overproduced UA802 α1,2 FucT protein (from pGEMI6 clone), GDP-fucose, and different acceptors labeled with tetramethylrhodamine (TMR). The results (FIG. 7) confirmed the data from the enzyme assay using radioactive labeled GDP-fucose (Table 3B) by identifying the products of the reactions.

[2] = Reaction products by capillary electrophoresis, TMR-labeled acceptor Type 1; settings: acceptor Type 1 labeled with TMR; authentic product H type 1
From the text: as §1

[3] = Reaction products by capillary electrophoresis, TMR-labeled acceptor Le^a; settings: acceptor Le^a labeled with TMR; authentic product Le^b
From the text: as §1

[4] = Fucosyltransferase assay (GDP-[3H]fucose), acceptor LacNAc
Procedure: (§2) In a typical experiment, E. coli CLM4 (pGP1-2) cells haboring a plasmid carrying an H. pylori fucT gene (pBKHp763fucT39, pGEMH2, pGEMI6 or pGEMB3) were grown in 25 ml liquid LB medium with appropriate antibiotics (kanamycin and ampicillin) at 30° C. to an optical density of 0.5-0.7 at 600 nm. After being collected, the cells were washed once with M9 medium, resuspended in 5 ml of supplemented M9 medium, and farther incubated at 30° C. for 1 h. To induce the expression of the fucT gene, the cell culture was shifted to 42° C. by adding 5 ml prewarmed (55° C.) supplemented M9 medium. After incubation at 42° C. for 15 min, rifampicin was added to a final concentration of 200 μg/ml, and cell growth was continued at 42° C. for 20 min.
(§3) For analysis of the protein on SDS-PAGE, a small aliquot (0.5 ml) of the cell culture was taken, and 2.5 μl of [^35S]-methionine (4.35×10^13 Bq/mmol, 3.7×10^8 Bq/ml, NEN™, Boston, Mass.) was added. After further growth at 30° C. for 30 min, the cells were harvested, resuspended in 100 μl sample buffer (50 mM Tris-HCl, pH6.8, 1% (w/v) SDS, 20 mM EDTA, 1% (v/v) mercaptoethanol, 10% (v/v) glycerol), and boiled for 3 min before loading on to the gel. For the preparation of the sample for the enzyme assay, the remaining part (major aliquot, 9.5 ml) of the cell culture after induction was further incubated at 30° C. for 30 min, then harvested. The cells were washed with 1.5 ml of 20 mM HEPES (pH 7.0), and resuspended in 1.5 ml of this buffer supplemented with 0.5 mM PMSF.
(§4) Preparation of cell lysates or cell extracts for the fucosyltransferase assay. […]
(§5) Assays of Hp α1,2 and a 1,3 FucT activities were carried out according to the method described by Chan et al. (1995, Glycobiology 5:683-688) with some modifications. […] For calculation of the specific activity of the enzyme (micro-units per milligram protein), protein concentrations of the cell extracts were determined with a BCA protein assay kit (Pierce, Rockford, Ill.) using BSA as a standard according to the supplier's instructions.

[5] = Fucosyltransferase assay (GDP-[3H]fucose), acceptor Le^a
Procedure: as §2, §3, §4, §5

[6] = Reaction products by capillary electrophoresis, TMR-labeled acceptor Le^X; settings: acceptor Le^X labeled with TMR; peak co-migrated with standard Le^Y
From the text: as §1

[7] = Fucosyltransferase assay (GDP-[3H]fucose), acceptor Type 1; settings: for total activity: from 25 ml cell culture
Procedure: as §2, §3
(§6) Preparation of cell lysates or cell extracts for the fucosyltransferase assay. The E. coli cells containing overproduced Hp FucT proteins, which were in HEPES buffer with PMSF as described above, were disrupted with a French press at 7000 lb/in^2 at 4° C. The cell lysates were used directly for enzyme assays. For determining the location of the enzyme activities, the cytoplasmic and membrane fractions were separated as follows. The cell lysates were centrifuged at 13,000× g at 4° C. for 10 min. The cell debris were discarded and the supernatant was subjected to ultracentrifugation at 128,000× g (Beckman TL100/rotor 100.2) at 4° C. for 1 h. The supernatant was collected as the cytoplasmic fraction. The membrane pellets were resuspended in a small volume of the same buffer and treated with 1 M NaCl.
(§7) Assays of Hp α1,2 and a 1,3 FucT activities were carried out according to the method described by Chan et al. (1995, Glycobiology 5:683-688) with some modifications. Reactions were conducted at 37° C. for 20 min in a volume of 20 μl containing 1.8 mM acceptor, 50 μM GDP-fucose, 60000 dpm GDP-[^3H]fucose, 20 mM HEPES buffer (pH7.0), 20 mM MnCl2, 0.1 M NaCl, 35 mM MgCl2, 1 mM ATP, 5 mg/ml BSA, and 6.2 μl of the enzyme preparation. The acceptors used in this study were: LacNAc [βGal 1-4 βGlcNAc], Le^X [βGal 1-4 (α Fuc1-3) βGlcNAc], Type 1 [[…] 1-3 βGlcNAc], and Le^a [βGal 1-3 (α Fuc1-4) βGlcNAc]. GDP-[^3H]fucose (1.9×10^11 Bq/ml/mmol) was obtained from American Radiolabeled Chemicals Inc. (St. Louis, Mo.). Sep-Pak Plus C-18 reverse-phase cartridges were purchased from Waters (Mississauga, ON). For calculation of the specific activity of the enzyme (micro-units per milligram protein), protein concentrations of the cell extracts were determined with a BCA protein assay kit (Pierce, Rockford, Ill.) using BSA as a standard according to the supplier's instructions.

[8] = Fucosyltransferase assay (GDP-[3H]fucose), acceptor Le^X; settings: for total activity: from 25 ml cell culture
Procedure: as §2, §3, §6, §7

[9] = acceptor Type 1, cytoplasm fraction
[10] = acceptor Le^x, membrane fraction

B1: α1,2FucT (UA802): H. pylori UA802 α1,2-fucosyltransferase (SEQ ID NO:2), overexpressed in E. coli from plasmid pGEMI6 (protein)
chain: MAFKVVQICGGLGNQMFQYAFAKSLQKHLNTPVLLDTTSFDWSNRKMQLELFPIDLPYANAKEIAIAKMQHLPKLVRDALKYIGFDRVSQEIVFEYEPKLLKPSRLTYFFGYFQDPRYFDAISSLIKQTFTLPPPPENNKNNNKKEEEYQRKLSLILAAKNSVFVHIRRGDYVGIGCQLGIDYQKKALEYMAKRVPNMELFVFCEDLKFTQNLDLGYPFTDMTTRDKEEEAYWDMLLMQSCKHGIIANSTYSWWAAYLMENPEKIIIGPKHWLFGHENILCKEWVKIESHFEVKSQKYNA
Question: Which “reaction product in electropherogram” value [1] does the source give for B1 here?
Answer: The value was “no reaction product representing H type 2 was observed”.

Question: What about the “reaction product in electropherogram” value [2] of the same molecule?
Answer: Its value is “new peaks co-migrating with authentic products”.

Question: And the “reaction product in electropherogram” value [3]?
Answer: Its value is “new peaks co-migrating with authentic products”.

Question: What about the specific activity ([4]; E. coli whole cell extract containing the overexpressed FucT protein) of the same molecule?
Answer: The specific activity was 14 ± 8 μU/mg.

Question: And the “α1,2 FucT activity (in words)” value ([4]; enzyme from pGEMI6)?
Answer: Its value is “almost no activity was detected”.

Question: What about the relative activity ([4]; relative to UA802 α1,2 FucT on its best substrate Type 1) of the same molecule?
Answer: The relative activity was 4.5%.

Question: What about the “activity compared to Le^X” value ([5]; acceptor Le^a versus Le^X) of the same molecule?
Answer: The value was 2 fold.

Question: And the specific activity ([5]; acceptor Le^a, proposed product Le^b, E. coli whole cell extract)?
Answer: The specific activity was 301 ± 13 μU/mg.

Question: And the relative activity ([5]; acceptor Le^a, relative to UA802 α1,2 FucT on its best substrate Type 1)?
Answer: The relative activity was 97%.

Question: And the “reaction product in electropherogram” value [6]?
Answer: The value was “a small new peak was produced”.

Question: And the specific activity ([7]; acceptor Type 1, proposed product H type 1, E. coli whole cell extract)?
Answer: Its specific activity is 309 ± 28 μU/mg.

Question: What about the “relative activity (percentage of the total activity)” value [7, 9] of the same molecule?
Answer: The value was 100%.

Question: What about the specific activity ([7]; acceptor Type 1, cytoplasm fraction of E. coli CLM4 (pGP1-2, pGEMI6)) of the same molecule?
Answer: Its specific activity is 78 μU/mg protein.

Question: And the total activity [7, 9]?
Answer: The total activity was 108 μU.

Question: And the specific activity ([7]; acceptor Type 1, membrane fraction of E. coli CLM4 (pGP1-2, pGEMI6))?
Answer: The specific activity was 8 μU/mg protein.

Question: And the total activity ([7]; acceptor Type 1, membrane fraction)?
Answer: Its total activity is 3 μU.

Question: What about the “relative activity (percentage of the total activity)” value ([7]; acceptor Type 1, membrane fraction, listed as H. pylori α1,2 FucT) of the same molecule?
Answer: The value was 3%.

Question: What about the “relative activity (percentage of the total activity)” value ([7]; acceptor Type 1, membrane fraction, listed as Hp α1,2 FucT) of the same molecule?
Answer: Its value is “less than 3%”.

Question: And the relative activity ([7]; acceptor Type 1, relative to UA802 α1,2 FucT on its best substrate Type 1)?
Answer: Its relative activity is 100%.

Question: And the “activity compared to Le^X” value ([7]; acceptor Type 1 versus Le^X)?
Answer: Its value is 2 fold.

Question: What about the specific activity ([8]; acceptor Le^X, proposed product Le^Y, E. coli whole cell extract) of the same molecule?
Answer: Its specific activity is 150 ± 33 μU/mg.

Question: And the “α1,2 FucT activity (in words)” value ([8]; acceptor Le^X, enzyme from pGEMI6)?
Answer: The value was “considerable activity was observed”.

Question: What about the “activity in the membrane fraction (in words)” value ([8]; acceptor Le^X, membrane fraction) of the same molecule?
Answer: The value was “no detectable activity”.

Question: What about the relative activity ([8]; acceptor Le^X, relative to UA802 α1,2 FucT on its best substrate Type 1) of the same molecule?
Answer: Its relative activity is 49%.

Question: And the “relative activity (percentage of the total activity)” value ([8]; acceptor Le^x, cytoplasm fraction)?
Answer: The value was 100%.

Question: What about the specific activity ([8]; acceptor Le^x, cytoplasm fraction of E. coli CLM4 (pGP1-2, pGEMI6), listed as H. pylori α1,2 FucT) of the same molecule?
Answer: The specific activity was 41 μU/mg protein and 38 μU/mg protein.

Question: What about the total activity ([8]; acceptor Le^x, cytoplasm fraction, listed as H. pylori α1,2 FucT) of the same molecule?
Answer: The total activity was 54 μU and 49 μU.

Question: And the “relative activity (percentage of the total activity)” value [8, 10]?
Answer: The value was 0%.

Question: What about the specific activity ([8]; acceptor Le^x, membrane fraction of E. coli CLM4 (pGP1-2, pGEMI6)) of the same molecule?
Answer: Its specific activity is 0 μU/mg protein.

Question: And the total activity [8, 10]?
Answer: Its total activity is 0 μU.

— patent US6670160B2, “α1,2-fucosyltransferase” (priority 1998, dated 2003)
